tested on: O=C1O[C@H]([C@@H](O)CO)C(=O)C1=O; assay: purified protein; conditions: co-substrate GSH, 50 mM phosphate pH 6.8, 0.2 mM EDTA

Row | Substance | Km | kcat [min⁻¹]
1 | HsCLIC3 (Homo sapiens) | 310.2 (±140.2) μM | 0.118
2 | HsCLIC1 (Homo sapiens; K13A) | 4121 (±858.6) μM | 0.012
3 | HsCLIC4 (Homo sapiens) | 495.1 (±316.6) μM | 0.133
4 | HsCLIC1 (Homo sapiens) | 2753 (±939.5) μM | 0.325
